Values of other authors as cited in article PMC9528458.

Biological target: Axin DAX (Homo sapiens) (UniProt O15169)
Sequence (O15169 780-862): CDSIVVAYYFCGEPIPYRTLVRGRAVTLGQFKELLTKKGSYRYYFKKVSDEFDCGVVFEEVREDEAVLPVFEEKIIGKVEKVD

Dishevelled DIX, sequence (O14641 8-96): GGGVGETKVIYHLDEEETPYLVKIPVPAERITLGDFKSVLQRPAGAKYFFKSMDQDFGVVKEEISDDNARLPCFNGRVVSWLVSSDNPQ

Kd: 15 µM
Substance: Dishevelled DIX (from UniProt O14641)
